# B1: human CD25 and human CCR4 together on human CD25+CCR4+ T-cell lymphoma cell line Hut 102/6TG (other)
# chain 1: ELCDDDPPEIPHATFKAMAYKEGTMLNCECKRGFRRIKSGSLYMLCTGNSSHSSWDNQCQCTSSATRNTTKQVTPQPEEQKERKTTEMQSPMQPVDQASLPGHCREPPPWENEATERIYHFVVGQMVYYQCVQGYRALHRGPAESVCKMTHGKTRWTQPQLICTGEMETSQFPGEEKPQASPEGRPESETSCLVTTTDFQIQTEMAATMETSIFTTEYQVAVAGCVFLLISVLLLSGLTWQRRQRKSRRTI
# chain 2: MNPTDIADTTLDESIYSNYYLYESIPKPCTKEGIKAFGELFLPPLYSLVFVFGLLGNSVVVLVLFKYKRLRSMTDVYLLNLAISDLLFVFSLPFWGYYAADQWVFGLGLCKMISWMYLVGFYSGIFFVMLMSIDRYLAIVHAVFSLRARTLTYGVITSLATWSVAVFASLPGFLFSTCYTERNHTYCKTKYSLNSTTWKVLSSLEINILGLVIPLGIMLFCYSMIIRTLQHCKNEKKNKAVKMIFAVVVLFLGFWTPYNIVLFLETLVELEVLQDCTFERYLDYAIQATETLAFVHCCLNPIIYFFLGEKFRKYILQLFKTCRGLFVLCQYCGLLQIYSADTPSSSYTQSTMDHDLHDAL
# notes: whole, on cells; Not a complex: two separate receptors on the same cell; also called human CD25+CCR4+ Hut102/6TG; CD25+CCR4+ CTCL Hut102/6TG
# Biological target: T1, CCR4-IL2 bispecific immunotoxin
# T1 construct: also called CCR4-IL2 IT; CCR4-IL2 immunotoxin
# Assay: flow cytometry, MFI against concentration of biotinylated immunotoxin on CD25+CCR4+ Hut102/6TG cells, nonlinear least squares fit
binder,measurement,value
B1,Kd,19.7 nM

# — US20260042853A1 (REGENTS OF THE UNIVERSITY OF COLORADO A BODY CORPORATE, published 2026)
